± gives the standard error. For part of these data: This sample holds only a part of the variants without activity.
B1: glmS ribozyme (parent)
chain: AUAAAAGCGCCAGAACUACAGAAAUGUAGUUGACGAGGAGGAGGUUUAUCGAAUUUUCGGCGGAUGCCUCCAAA

Key:
Details in all cases: with glucosamine-6-phosphate
glucosamine-6-phosphate [1] = variants of: B1; assay: kcat; higher = faster cleavage; RNA array
How it was run: (§1)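 Tiles of sequenced MiSeq chips were imaged over ~14 h at 37 °C. On them, barcoded ribozyme variants had been transcribed in situ by E. coli RNA polymerase and were tracked via a hybridised Cy3 probe while glucosamine-6-phosphate (40 μM to 10 mM) in HEPES/KCl/Mg(OAc)2 buffer flowed in. Per-tile medians, normalised to baseline and to non-cleaving reference variants, were fit to one- or two-exponential decays for kobs, and weighted Michaelis–Menten fits gave kcat and KM.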

glucosamine-6-phosphate [2] = variants of: B1; assay: self-cleavage kobs at 640 uM GlcN6P; higher = faster cleavage; RNA array
How it was run: as §1

glucosamine-6-phosphate [3] = variants of: B1; assay: self-cleavage kobs at 2500 uM GlcN6P; higher = faster cleavage; RNA array
How it was run: as §1

glucosamine-6-phosphate [4] = variants of: B1; assay: self-cleavage kobs at 10000 uM GlcN6P; higher = faster cleavage; RNA array
How it was run: as §1

glucosamine-6-phosphate [5] = variants of: B1; assay: KM; higher = weaker cofactor use; RNA array
How it was run: as §1

glucosamine-6-phosphate [6] = variants of: B1; assay: self-cleavage kobs at 160 uM GlcN6P; higher = faster cleavage; RNA array
How it was run: as §1

glucosamine-6-phosphate [7] = variants of: B1; assay: self-cleavage kobs at 40 uM GlcN6P; higher = faster cleavage; RNA array
How it was run: as §1

Variant | kcat (glucosamine-6-phosphate [1]) [s⁻¹] | self-cleavage kobs at 640 uM GlcN6P (glucosamine-6-phosphate [2]) [s⁻¹] | self-cleavage kobs at 2500 uM GlcN6P (glucosamine-6-phosphate [3]) [s⁻¹] | self-cleavage kobs at 10000 uM GlcN6P (glucosamine-6-phosphate [4]) [s⁻¹] | KM (glucosamine-6-phosphate [5]) [µM] | self-cleavage kobs at 160 uM GlcN6P (glucosamine-6-phosphate [6]) [s⁻¹] | self-cleavage kobs at 40 uM GlcN6P (glucosamine-6-phosphate [7]) [s⁻¹]
A52U U69A | 5.73e-05 ± 1.5e-05 | 4.77e-05 ± 1.1e-05 | 7.38e-05 ± 1.2e-05 | 3.63e-05 ± 1.2e-05 |  |  | 
G13C U30C A52G | 1.64e-05 ± 4.9e-06 |  |  |  |  |  | 
U31G U65G | 0.00259 ± 0.00018 | 0.000375 ± 5.5e-05 | 0.000924 ± 0.00017 | 0.00184 ± 0.00019 | 4140 ± 440 | 9.35e-05 ± 1.7e-05 | 
A33U C68U | 1.75e-05 ± 1.6e-06 |  |  |  |  |  | < 1e-05
A12C | 0.042 ± 0.0066 | 0.00858 ± 0.00027 | 0.0195 ± 0.00085 | 0.0393 ± 0.0013 | 2170 ± 410 | 0.00261 ± 0.00016 | 0.000794 ± 1.3e-05
G13U U49G | 1.85e-05 ± 6.3e-06 |  |  |  |  | < 1e-05 | < 1e-05
A33C U69A | < 1e-05 | < 1e-05 |  |  |  | < 1e-05 | 
U47C U55G | 0.0038 ± 0.00044 | 0.0011 ± 0.00014 | 0.00161 ± 0.00035 | 0.00347 ± 0.00028 | 1640 ± 260 | 0.000341 ± 4.2e-05 | 9.2e-05 ± 7.2e-06
A12U U31G | 0.0183 ± 0.0087 | 0.00439 ± 0.00076 | 0.00841 ± 0.0023 | 0.0262 ± 0.0045 |  | 0.00142 ± 0.00026 | 0.000567 ± 5.6e-05
G38U U47G | < 1e-05 |  |  |  |  |  | < 1e-05
U47G A53C | 0.00406 ± 0.001 | 0.000873 ± 0.00013 | 0.00196 ± 0.00025 | 0.00439 ± 0.0019 | 2510 ± 860 | 0.000223 ± 3.9e-05 | 0.000103 ± 3.4e-05
A33G U57G | 1.21e-05 ± 4.2e-06 |  |  | < 1e-05 |  |  | 
U30A U56C | 0.0028 ± 0.00091 | 0.000126 ± 2.4e-05 | 0.000369 ± 8.1e-05 | 0.00113 ± 0.00015 |  |  | 
U47G U55G | 0.00601 ± 0.0021 | 0.00195 ± 0.00043 | 0.00249 ± 0.001 | 0.00706 ± 0.0012 |  |  | 0.000247 ± 4.9e-05
A39C U45A | 0.0045 ± 0.001 | 0.00118 ± 0.0002 | 0.00392 ± 0.001 | 0.00397 ± 0.00058 | 1430 ± 550 | 0.000456 ± 9.8e-05 | 0.000226 ± 5.6e-05
A12C G66U | 0.00165 ± 0.00058 | 0.000586 ± 6.9e-05 | 0.000865 ± 0.00014 | 0.00133 ± 0.0002 | 1990 ± 990 | 9.73e-05 ± 1.3e-05 | 5.83e-05 ± 1.3e-05
A39U G66C C67A | 0.000462 ± 8.7e-05 | 0.00015 ± 3.2e-05 | 0.000248 ± 6.1e-05 | 0.000455 ± 0.00013 | 1570 ± 490 | 4.03e-05 ± 1.3e-05 | 

Variant | kcat (glucosamine-6-phosphate [1]) [s⁻¹] | self-cleavage kobs at 640 uM GlcN6P (glucosamine-6-phosphate [2]) [s⁻¹] | self-cleavage kobs at 2500 uM GlcN6P (glucosamine-6-phosphate [3]) [s⁻¹] | self-cleavage kobs at 10000 uM GlcN6P (glucosamine-6-phosphate [4]) [s⁻¹] | KM (glucosamine-6-phosphate [5]) [µM] | self-cleavage kobs at 160 uM GlcN6P (glucosamine-6-phosphate [6]) [s⁻¹] | self-cleavage kobs at 40 uM GlcN6P (glucosamine-6-phosphate [7]) [s⁻¹]
A33C U47A | 0.000256 ± 2.1e-05 | 4.21e-05 ± 1.7e-05 | 0.000136 ± 4.7e-05 | 0.000195 ± 3.4e-05 | 2950 ± 550 |  | 
U57G C71A | 3.11e-05 ± 9.7e-06 | 4.65e-05 ± 1.5e-05 | 3.2e-05 ± 1.5e-05 |  |  |  | 
A36C G66U | < 1e-05 |  |  |  |  |  | 
G29A A39U A42U | 0.000919 ± 0.00015 | 0.000148 ± 3.3e-05 | 0.000488 ± 0.00012 | 0.000685 ± 0.00014 | 3000 ± 790 | 4.77e-05 ± 2e-05 | 
A12U U31A | 0.0283 ± 0.0065 | 0.00457 ± 0.0011 | 0.0106 ± 0.0026 | 0.0257 ± 0.0049 | 2890 ± 880 | 0.00177 ± 0.00045 | 0.000416 ± 7.3e-05
G13A G41A | 6.21e-05 ± 2.2e-06 |  | 3.77e-05 ± 1.2e-05 | 5.25e-05 ± 8.1e-06 | 1770 ± 270 |  | 
A39U C68G | 0.000151 ± 1.6e-05 | 5.37e-05 ± 7.8e-06 | 0.000126 ± 1.2e-05 | 0.000127 ± 1.3e-05 | 998 ± 310 |  | 
G32U U56C | 0.000177 ± 3.9e-05 | 2.54e-05 ± 8.9e-06 | 0.000105 ± 2.1e-05 | 0.000127 ± 2.4e-05 | 2990 ± 1300 |  | < 1e-05
A15G C68A | 6.63e-05 ± 4.7e-06 | 5.49e-05 ± 1.2e-05 | 7.32e-05 ± 1.2e-05 | 6.03e-05 ± 9.3e-06 | 131 ± 49 | 3.62e-05 ± 9e-06 | 
C50U C58A | < 1e-05 |  | < 1e-05 | < 1e-05 |  |  | 
C11A A39U | 0.000122 ± 2.3e-05 |  | 7e-05 ± 9.6e-06 | 9.43e-05 ± 1.2e-05 |  |  | 
U45G C68U | 0.00118 ± 0.00032 | 0.000145 ± 2.5e-05 | 0.000287 ± 5.6e-05 | 0.000826 ± 8.4e-05 | 5190 ± 2400 | 5.23e-05 ± 1.3e-05 | 
A52G G59A | < 1e-05 |  |  |  |  |  | < 1e-05
C50U U54A C70U | 3.48e-05 ± 1e-05 | 6e-05 ± 2.4e-05 | 2.99e-05 ± 1.5e-05 |  |  |  | 
A6U A39U C70U | 6.69e-05 ± 6e-06 | 3.98e-05 ± 1.7e-05 | 4.96e-05 ± 1.8e-05 | 6.76e-05 ± 1.9e-05 | 506 ± 210 |  | 
C34G G37U | < 1e-05 | < 1e-05 |  | < 1e-05 |  |  | 
